T1: Wheat germ agglutinin (WGA) (Triticum vulgare, UniProt P10968 P10968:27-197)
T1 sequence: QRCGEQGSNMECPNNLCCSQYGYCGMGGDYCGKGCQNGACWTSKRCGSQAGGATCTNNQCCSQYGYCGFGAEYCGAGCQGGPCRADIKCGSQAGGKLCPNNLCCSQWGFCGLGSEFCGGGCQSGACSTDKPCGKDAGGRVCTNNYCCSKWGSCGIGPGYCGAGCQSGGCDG

B1: 11.20 (ssRNA)
RNA: GGGAAAAGCGAAUCAUACACAAGAUUGGUCGUACUGGACAGAGCCGUGGUAGAGGGAUUGGGACAAAGUGUCAGCUCCGCCAGAGACCAACCGAGAA
modifications: 2'-NH2 pyrimidines

Assays:
[1] = target: PDGF-BB (platelet-derived growth factor BB) (Homo sapiens, UniProt P01127 P01127:82-190); assay: 33-mer described previously (US 5,723,594); measurement conditions not stated; conditions: tags: R&D Systems, carrier free lyophilized; chain copies: 2 (inferred, homodimer)
Chain of PDGF-BB (platelet-derived growth factor BB) (P01127 82-190, one chain of several): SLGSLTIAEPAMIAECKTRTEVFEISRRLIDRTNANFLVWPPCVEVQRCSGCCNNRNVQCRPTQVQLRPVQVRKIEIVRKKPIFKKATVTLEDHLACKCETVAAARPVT

[2] = target: T1, Wheat germ agglutinin (WGA); assay: filter; 10 nM aptamer and 10 nM WGA, HBSMC pH 7.4, room temperature; displaced by (GlcNAc)2, (GlcNAc)3 and (GlcNAc)4, not by GlcNAc; conditions: tags: EY Laboratories; chain copies: 2; label: 5'-32P
Method: Small molecule oligosaccharides were screened for their ability to compete with WGA aptamer 11.20 for binding to wheat germ agglutinin protein. The small molecule (or cold 11.20) competitors at varying concentrations were mixed with the 5′-32P end-labeled 11.20 ligand at room temperature. Then WGA was added to the mixture and allowed to equilibrate for 60 minutes at room temperature. The competition mixtures (90 μL volume) all had 32P end-labeled 11.20 at 10 nM, WGA at 10 nM and were in 25 mM Hepes, 137 mM NaCl, 2.7 mM KCl, 1 mM MgCl₂, 1 mM CaCl₂, 0.067% human serum albumin (HSA), at pH 7.4 (HBSMC). Aptamer bound to WGA was separated from free aptamer by filtration through pre-washed […] nitrocellulose membrane filters. Filters were washed with 5 mL HBSMC at room temperature. The filters were placed in tubes with scintillant and the radioactivity counted to quantitate the fraction of 32P end-labeled 11.20 bound at each competitor concentration.

| Binder | Kd [1] | binding result [2] |
| --- | --- | --- |
| CGGGCGCGTTCTTCGTGGTTACTTTTAGTCCCG (ssDNA) [20ta] | 50 pM | – |
| B1 | – | binds |
